Reference: article PMC7267745, “Histidine-Rich Glycoprotein Inhibits High-Mobility Group Box-1-Mediated Pathways in Vascular Endothelial Cells through CLEC-1A” (iScience, 2020)

B1: human recombinant exCLEC-1A protein (domain or fragment)
chain: QYYQLSNTGQDTISQMEERLGNTSQELQSLQVQNIKLAGSLQHVAEKLCRELYNKAGAHRCSPCTEQWKWHGDNCYQFYKDSKSWEDCKYFCLSENSTMLKINKQEDLEFAASQSYSEFFYSYWTGLLRPDSGKAWLWMDGTPFTSELFHIIIDVTSPRSRDCVAILNGMIFSKDCKELKRCVCERRAGMVKPESLHVPPETLGEGD
B2: extracellular domain of CLEC-1A-Fc (exCLEC-1A-Fc) fusion protein (Fc fusion, UniProt Q8NC01 74-280, looked up)
chain: B1 chain
notes: extracellular domain of CLEC-1A; Source, limits and the kind of Fc are told only in the Transparent Methods (Document S1), if at all

Assays:
[1] = molecular target: T1, Histidine-rich glycoprotein (HRG), purified from human plasma (human, UniProt P04196 19-525); assay: SPR
T1 chain: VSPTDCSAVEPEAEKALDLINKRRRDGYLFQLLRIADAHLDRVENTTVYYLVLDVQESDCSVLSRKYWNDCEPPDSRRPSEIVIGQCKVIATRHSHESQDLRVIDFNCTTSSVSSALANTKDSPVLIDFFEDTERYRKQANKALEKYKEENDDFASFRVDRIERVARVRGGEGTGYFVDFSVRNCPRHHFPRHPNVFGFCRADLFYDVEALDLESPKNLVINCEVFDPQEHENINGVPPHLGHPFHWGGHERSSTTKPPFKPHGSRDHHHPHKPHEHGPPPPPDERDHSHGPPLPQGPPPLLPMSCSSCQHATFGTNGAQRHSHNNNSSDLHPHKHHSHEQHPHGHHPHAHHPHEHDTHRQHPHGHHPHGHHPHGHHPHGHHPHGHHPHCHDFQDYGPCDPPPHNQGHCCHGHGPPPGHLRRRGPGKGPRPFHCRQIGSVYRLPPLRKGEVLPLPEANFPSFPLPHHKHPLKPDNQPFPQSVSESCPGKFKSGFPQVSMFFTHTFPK

[2] = molecular target: T2, Histidine-rich glycoprotein (HRG), purified from human plasma (human, UniProt P04196 19-525); assay: SPR; BIAcore; exCLEC-1A-Fc fusion protein immobilised on a CM5 sensor chip; HRG flowed over; conditions: both partners purified
T2 construct: histidine-rich glycoprotein, human, 75 kDa plasma protein; source: purified from human plasma
T2 sequence (looked up): T1 chain

[3] = molecular target: T2, Histidine-rich glycoprotein (HRG), …; assay: SPR; BIAcore; HRG purified from human plasma (5 μg/mL) immobilised on a CM5 chip; exCLEC-1A-Fc (3.125, 6.25, 12.5 or 25 μg/mL) or human recombinant exCLEC-1A flowed for 120 s; conditions: both partners purified

Binder | Kd [1] | Kd [2] | Kd [3]
B1 | 400 nM |  | 
B2 |  | 10 nM | 7 nM
